Among the data in a protein production outcome set (Wang et al. 2014) are protein production values, retold here.

The nature of the data set: label from the status in PepcDB records.

Turning to “MEIVYVYVKKRSEFGKQCNFSDRQAELNIDISPNPELAALYVERNPVDTGIQCSASMSEHEANTERFEMENCGVNHVEGGWPKDVNPQELEQTIRFRKKVEKDENYINAVMQLGSIMEHCIKQNNAIDIYEEYFDDEEAVEVTEEAPSAKTINVFRDPQEIKRTATHLSWHPDGNKKLAVAYSCLQFQRSPMGMSHDSYIWDLENPNRPEIALKPSSPLITLEYNPKDSHVLLGGCYNGQIACWDTRKGSLVAELSTIEFSHRDPVYGTIWLQSKTGTECFSASTDGQVMWWDIRKISEPTEVVIMDITRKEQLENALGAISLEFESTLETPFQMGRGLGCILSRRPELKQQNEKLEGKPLTLPSHHRVPVRLGFYPCFPTNKRGLGDTCRSWLSPSSWAQGTKLRLSVLVANAVEPVTAWAAFTHMQSLHTQEHTVSTLGRFYFMYKQISKILTRTLTGASSVLKVCDDPLFCLRVQDTGCLIACGSELGTTTLLEVSSSLSTLQRNERNIASSIFERETRREKILEARHREMRLKEKGKAEGRDDDQKEEETALDLDELVNKAEEEFFEVIFAELKRKEAEALKKKPKPKKASIEVEGEDELEDIAGEEEESGIIMGEDTGEDDMDEKNEGGAP”, the protein production result is given as “failed”.
In the case of “MEKADIEAIFARSRFISAMNLEILDIDHAGSRFSVRMPLQDTYERGAPGTKQFHGGALAALIDVVGDFAIGMLVGGGVPTMNLRIDYLRPAVGDYVDGVAVVRKAGKSAAVVDIDILCPAGKLVAIGRGTYVPITGLEHHHHHH”, the protein production entry is “failed”.
For “MEKAMPESFVVRREAHLAAPPAAVFALMTDPEKILRWMGTEAEVEPEPGGLYLVNVTGARFARGSFREVVPVHRLAYSFGWDGSEVVPPGSSLVEIDLIEQGGGTLLRLTHSGLPSAEQCAGHEEGWAHYLGRLTEVAAGRDPGLEHHHHHH”, the protein production result was “failed”.
On to “MEKFLTTTYKELNSSMYKFSKGLTLVLFSLALSACSSSPEDNDIAAKTSPDELYSQARTSMELGNYSKAVRSLEALDSRFPFGPHKTQVQLDLIYAYYKMDDVASGIANIDRFIRLNPTHPNIDYVYYMRGLVNMQADSYLFHDMLNIDRTDRDPKNAQDAFKDFDRLIKTYPNSKYAADAQKRMLSLKNRLAKYSIQVAEYYIKMNAWSAAAVRAQSVLETYPGTPSTERALEIMAEAYGELGQNQLKQNVLMVMQANFPNNEILSN”, for which the protein production entry is “failed”.
Take “MEKIERLRSAFDEAGIDGILLTNEHSRRYMANFTGTAGVVLISKKRAQFITDFRYVEQASKQAVGYEIVQHAGLIIDEVAKQVKELGIQKLGFEQDTLTYSSYSAHKEAIDAEFIPTSGLVEKLRLIKTDSEIKILKEAAQIADAAFEHILSFIRPGVSEIEVSNELEFFMRKQGATSSSFDIIVASGLRSALPHGVASEKVIETGDFVTLDFGAYYKGYCSDITRTIAVGEPSDKLKEIYNIVLEAQLRGVNGIKAGLTGREADALTRDYITEKGYGEYFGHSTGHGIGLEIHEAPGLAFRSDTVLEPGMAVTVEPGIYIPGIGGVRIEDDIIVTSEGNEVITKSPKELIIL”: the protein production result is recorded as “not failed”.
With “MEKIGETMAKLGQNTRVNSDQLIQTILADPEVASFISQHHLSQEQINLSLSKFNQFLVERQKYQLKDPSYIAKGYQPILAMNEGYADVSYLETKELVEAQKQAAISERIQLVSLPKSYRHIHLSDIDVNNASRMEAFSAILDFVEQYPSAEQKGLYLYGDMGIGKSYLLAAMAHELSEKKGVSTTLLHFPSFAIDVKNAISNGSVKEEIDAVKNVPVLILDDIGAEQATSWVRDEVLQVILQYRMLEELPTFFTSNYSFADLERKWATIKGSDETWQAKRVMERVRYLAREFHLEGANRRLEHHHHHH” the entry was “not failed”.
With “MEKKEMEKLCQRCKQSYTDLSNETSSCRFHPSFFVCRRHDDQKRYYELKPDDPPYAAKFYDCCGAEDPNAPGVKDLACDLSAGYCLEPLLALHTATE” the entry was “failed”.
Consider “MEKLGQFIINHWQLWLAFVVVVFLIFINEILSQRKKAKEVSPQSLVDLMNNGNAIVIDIRDKESFKNGHIINSMNVNPDDFEQQKMSKYKDKPIILVCARGLQSPTLAMKIRNQGYQPLVLSGGIQAWQNADLPLVKGK”, for which the protein production entry is reported as “failed”.
As for “MEKNLLRSALKIFEKKDLSLLAYSGRSIFESKDSGLKPVVELFKRFDNLEGSLVIDKMVGKAAASFLLKMKPDHIHAKVISKPALKLMNEYGQSFSYDEKIPFVLGKDGKSMCPFEKLVLEMDDPEEIIRIVLSKFTSL”, the protein production result was “not failed”.
